In patent US20190330277A1 (PIRBRIGHT INSTITUTE, published 2019):

B1: D25 antibody (antibody, V domains shown)
VH: QVQLVQSGAEVKKPGSSVMVSCQASGGPLRNYIINWLRQAPGQGPEWMGGIIPVLGTVHYAPKFQGRVTITADESTDTAYIHLISLRSEDTAMYYCATETALVVSTTYLPHYFDNWGQGTLVTVSS
VL: DIQMTQSPSSLSAAVGDRVTITCQASQDIVNYLNWYQQKPGKAPKLLIYVASNLETGVPSRFSGSGSGTDFSLTISSLQPEDVATYYCQQYDNLPLTFGGGTKVEIK
notes: also called mAb D25
B2: MPE8 antibody (antibody, V domains shown)
VH: EVQLVESGGGLVKPGGSLRLSCAASGFTFSSYSMNWVRQAPGKGLEWVSSISASSSYSDYADSAKGRFTISRDNAKTSLFLQMNSLRAEDTAIYFCARARATGYSSITPYFDIWGQGTLVTVSS
VL: QSVVTQTPSVSGAPGQRVTISCTGSSSNIGAGYDVHWYQQLPGTAPKLLIYDNNNRPSGVPDRFSASKSGTSASLAITGLQAEDEADYYCQSYDRNLSGVFGTGTKVTVL
notes: also called mAb MPE8

Legend:
Test in all cases: ELISA, variant from culture supernatant on Ni-NTA plate
[1] = target: T1, sc9-10_DS-CAV1_bRSV(RB94)_Fd_fp2_ig1
T1 construct: also called sc-v34
Method: (§1) Initial assessment of all constructs were performed using a 96-well microplate format for high throughput expression followed by an ELISA-based antigenic evaluation as described previously 17. […] Plasmid DNA and TrueFect-Max (United BioSystems, MD) were mixed and added to the growing cells, and the 96-well plate incubated at 37° C., 5% CO2. One day post transfection, enriched medium (high glucose DMEM plus 25% ultra-low IgG fetal bovine serum, 2× nonessential amino acids, 1× glutamine) was added to each well, and the 96-well plate was returned to the incubator for continuous culture.

[2] = target: T2, RB94 site 0 hRSV bovSurf DS-Cav1-BZGJ9 Long FdPL
T2 construct: also called sc-v7
Method: as §1

[3] = target: T3, 391-2wt_F-SC_12R core
T3 construct: also called sc-v28
Method: as §1

[4] = target: T4, sc9-10_DS-CAV1_bRSV(RB94)_Fd_hp1_fp2_ig1
T4 construct: also called sc-v13
Method: as §1

[5] = target: T5, 391-2-DS-Cav1-BZGJ9_gyc5
T5 construct: also called sc-v10
Method: as §1

[6] = target: T6, 391-2-DS-Cav1-BZGJ9 Long K226L
T6 construct: also called sc-v12
Method: as §1

[7] = target: T7, 391-2-site 0 hRSV DSCav1-BZGJ9 Long
T7 construct: also called sc-v9
Method: as §1

[8] = target: T8, 391-2_DS-Cav1-tzsc3
T8 construct: also called sc-v33
Method: as §1

[9] = target: T9, sc9-10_DS-CAV1_bRSV(RB94)_Fd_hp2_fp1_ig1
T9 construct: also called sc-v5
Method: as §1

[10] = target: 391-2wt-F_SC_11R
Method: as §1

[11] = target: T10, RB94 site 0 hRSV bovSurf DS-Cav1 Long FdPL
T10 construct: also called sc-v14
Method: as §1

[12] = target: T11, 391-2-DS-Cav1-IP-5
T11 construct: also called sc-v19
Method: as §1

[13] = target: T12, 391-2_DS-Cav1-tzsc5
T12 construct: also called sc-v25
Method: as §1

[14] = target: T13, RB94 site 0 hRSV DS-Cav1-BZGJ9 Long FdPL
T13 construct: also called sc-v6
Method: as §1

[15] = target: T14, sc9-10_DS-CAV1_bRSV(RB94)_Fd_pm1_fp1_ig1
T14 construct: also called sc-v15
Method: as §1

[16] = target: T15, 391-2 hu/bov-DS-Cav1-BZGJ9 Long
T15 construct: also called sc-v18
Method: as §1

[17] = target: T16, RB94 DS-Cav1 Long FdPL
T16 construct: also called sc-v31
Method: as §1

[18] = target: T17, KXlinker1
T17 construct: also called sc-v30
Method: as §1

[19] = target: T18, KXlinker2
T18 construct: also called sc-v35
Method: as §1

[20] = target: T19, 391-2-DSCav1- F-SC_7R
T19 construct: also called sc-v36
Method: as §1

[21] = target: T20, 391-2-DS-Cav1-BZGJ9_gyc7
T20 construct: also called sc-v27
Method: as §1

[22] = target: T21, 391-2-DS-Cav1-BZGJ9_gyc1
T21 construct: also called sc-v16
Method: as §1

[23] = target: T22, sc9-10_DS-CAV1_bRSV(RB94)_Fd_pm1_ig1
T22 construct: also called sc-v11
Method: as §1

[24] = target: T23, 391-2-DS-Cav1-sc9 100C-361C
T23 construct: also called DS2-v19
Method: as §1

[25] = target: T24, RB94 sc9 DS-CAV1 A149C-Y458C L373R Long S190V
T24 construct: also called DS2-v30
Method: as §1

[26] = target: T25, RB94 sc9 DS-CAV1 N183GC-N428C L373R Long S190V
T25 construct: also called DS2-v13
Method: as §1

[27] = target: T26, 391-2-DS-Cav1-sc9deleteFS 100C-362C
T26 construct: also called DS2-v21
Method: as §1

[28] = target: T27, 391-2-DS-Cav1_ sc9_I395C-A490C
T27 construct: also called DS2-v27
Method: as §1

[29] = target: T28, 391-2-DS-Cav1_ S398C-S485C
T28 construct: also called DS2-v25
Method: as §1

[30] = target: T29, RB94 DS-CAV1 T369C-T455C Long
T29 construct: also called DS2-v32
Method: as §1

[31] = target: T30, 391-2-DS-Cav1-sc9deleteFS 100C-361C
T30 construct: also called DS2-v29
Method: as §1

[32] = target: T31, RB94 hu/bov DS-CAV1 A149C-Y458C Long
T31 construct: also called DS2-v7
Method: as §1

| Binder | ELISA binding value [1] | ELISA binding value [2] | ELISA binding value [3] | ELISA binding value [4] | ELISA binding value [5] | ELISA binding value [6] | ELISA binding value [7] | ELISA binding value [8] | ELISA binding value [9] | ELISA binding value [10] | ELISA binding value [11] | ELISA binding value [12] | ELISA binding value [13] | ELISA binding value [14] | ELISA binding value [15] | ELISA binding value [16] | ELISA binding value [17] | ELISA binding value [18] | ELISA binding value [19] | ELISA binding value [20] | other results |
| --- | --- | --- | --- | --- | --- | --- | --- | --- | --- | --- | --- | --- | --- | --- | --- | --- | --- | --- | --- | --- | --- |
| B1 | 0.299 | 2.21 | 0.709 | 1.88 | 1.93 | 1.92 | 2.02 | 0.383 | 2.17 | 0.739 | 1.7 | 1.28 | 0.662 | 2.16 | 1.67 | 1.39 | 0.392 | 0.399 | 0.321 | 0.225 | ELISA binding value [21]: 0.732; ELISA binding value [22]: 1.4; ELISA binding value [23]: 1.86; ELISA binding value [24]: 0.181; ELISA binding value [25]: 0.133; ELISA binding value [26]: 0.206; ELISA binding value [27]: 0.16; ELISA binding value [28]: 0.136; ELISA binding value [29]: 0.141; ELISA binding value [30]: 0.129; ELISA binding value [31]: 0.133; ELISA binding value [32]: 0.274 |
| B2 | 0.464 | 2.14 | 0.646 | 1.81 | 1.8 | 1.78 | 2.08 | 0.433 | 2.25 | 0.887 | 1.84 | 1.41 | 1.22 | 2.2 | 1.73 | 1.32 | 0.489 | 0.544 | 0.361 | 0.312 | ELISA binding value [21]: 0.821; ELISA binding value [22]: 1.55; ELISA binding value [23]: 1.87; ELISA binding value [24]: 0.173; ELISA binding value [25]: 0.0477; ELISA binding value [26]: 0.155; ELISA binding value [27]: 0.0757; ELISA binding value [28]: 0.0919; ELISA binding value [29]: 0.0824; ELISA binding value [30]: 0.0667; ELISA binding value [31]: 0.0592; ELISA binding value [32]: 0.29 |
